Reference: the supplement of paper PMC9112550, “Optimization of the antimicrobial peptide Bac7 by deep mutational scanning” (BMC Biology, 2022)

System: Escherichia coli TOP10
Assay: shrunken log2 fold change of peptide-encoding DNA abundance (4.5 h post-induction vs induction); higher = less antimicrobial activity (less host growth inhibition)
Conditions: time post-induction: 4.5 h; library: site-saturation at positions 5, 18, 19, 20
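Also: peptides expressed intracellularly from a pBAD plasmid library in pooled LB shake-flask culture, induced with 0.3% L-arabinose, DNA abundance read by NGS, three biological replicates, DESeq2 with apeglm shrinkage.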

RRIRERPPRLPRPRPRPQTAPRP and RRIRVRPPRLPRPRPRPTCTPRP are within 0.2 log units of each other in “shrunken log2 fold change” value: -0.0922 for the first, -0.00861 for the second.

RRIRTRPPRLPRPRPRPFPPPRP and RRIRDRPPRLPRPRPRPFNAPRP are within 0.2 log units of each other in “shrunken log2 fold change” value: -0.0137 for the first, -0.0419 for the second.

RRIRYRPPRLPRPRPRPKRLPRP and RRIRTRPPRLPRPRPRPIAQPRP are within 0.2 log units of each other in “shrunken log2 fold change” value: -0.102 for the first, -0.0464 for the second.

Compared with RRIRKRPPRLPRPRPRPTNFPRP, RRIRCRPPRLPRPRPRPVFHPRP is lower in “shrunken log2 fold change” value: 0.111 for the first, -0.262 for the second.

Going from RRIRCRPPRLPRPRPRPGPQPRP to RRIRLRPPRLPRPRPRPKNQPRP, the “shrunken log2 fold change” value falls from 0.117 to -0.202.

RRIRDRPPRLPRPRPRPTCRPRP and RRIRVRPPRLPRPRPRPRRKPRP are within 0.2 log units of each other in “shrunken log2 fold change” value: 0.175 for the first, 0.0637 for the second.

Compared with RRIRIRPPRLPRPRPRPMFAPRP, RRIRGRPPRLPRPRPRPSIYPRP is higher in “shrunken log2 fold change” value: -0.00719 for the first, 0.302 for the second.

First: RRIRQRPPRLPRPRPRPYKKPRP
Second: RRIRYRPPRLPRPRPRPYFRPRP
The “shrunken log2 fold change” value of the first is higher: -0.0619 for the first, -0.836 for the second.

Compared with RRIRARPPRLPRPRPRPWWPPRP, RRIRGRPPRLPRPRPRPWMLPRP is lower in “shrunken log2 fold change” value: 0.292 for the first, 0.0888 for the second.

Going from RRIRGRPPRLPRPRPRPILLPRP to RRIRPRPPRLPRPRPRPLGKPRP, the “shrunken log2 fold change” value falls from -0.0679 to -0.361.

RRIRNRPPRLPRPRPRPDLIPRP and RRIRVRPPRLPRPRPRPQGKPRP are within 0.2 log units of each other in “shrunken log2 fold change” value: -0.172 for the first, 0.00549 for the second.

First: RRIRQRPPRLPRPRPRPIQVPRP
Second: RRIRFRPPRLPRPRPRPICLPRP
The “shrunken log2 fold change” value of the first is higher: -0.201 for the first, -0.548 for the second.

First: RRIRMRPPRLPRPRPRPGHWPRP
Second: RRIRDRPPRLPRPRPRPYQPPRP
The “shrunken log2 fold change” value of the first is higher: 0.263 for the first, -0.0769 for the second.

First: RRIRMRPPRLPRPRPRPGNTPRP
Second: RRIRYRPPRLPRPRPRPMYHPRP
The “shrunken log2 fold change” value of the first is higher: -0.246 for the first, -0.707 for the second.

Going from RRIRKRPPRLPRPRPRPQVLPRP to RRIRCRPPRLPRPRPRPGQVPRP, the “shrunken log2 fold change” value rises from -0.165 to 0.0846.

Compared with RRIRDRPPRLPRPRPRPMHFPRP, RRIRLRPPRLPRPRPRPSVLPRP is lower in “shrunken log2 fold change” value: -0.142 for the first, -0.779 for the second.

Going from RRIRIRPPRLPRPRPRPWHDPRP to RRIRKRPPRLPRPRPRPQLPPRP, the “shrunken log2 fold change” value rises from -0.676 to -0.105.

RRIRDRPPRLPRPRPRPLSKPRP and RRIRKRPPRLPRPRPRPIEAPRP are within 0.2 log units of each other in “shrunken log2 fold change” value: 0.132 for the first, 0.0321 for the second.

First: RRIRWRPPRLPRPRPRPYTRPRP
Second: RRIRFRPPRLPRPRPRPFVLPRP
The “shrunken log2 fold change” value of the first is lower: -0.774 for the first, -0.532 for the second.

Compared with RRIRERPPRLPRPRPRPTQHPRP, RRIRQRPPRLPRPRPRPYQAPRP is lower in “shrunken log2 fold change” value: 0.239 for the first, -0.232 for the second.

RRIRYRPPRLPRPRPRPICKPRP and RRIRQRPPRLPRPRPRPSALPRP are within 0.2 log units of each other in “shrunken log2 fold change” value: -0.193 for the first, -0.0016 for the second.

Compared with RRIRCRPPRLPRPRPRPFWEPRP, RRIRGRPPRLPRPRPRPFALPRP is higher in “shrunken log2 fold change” value: -0.0195 for the first, 0.278 for the second.

RRIRQRPPRLPRPRPRPKQAPRP and RRIRDRPPRLPRPRPRPLFLPRP are within 0.2 log units of each other in “shrunken log2 fold change” value: 0.0135 for the first, -0.13 for the second.

Compared with RRIRTRPPRLPRPRPRPPYYPRP, RRIRRRPPRLPRPRPRPYGSPRP is higher in “shrunken log2 fold change” value: -0.535 for the first, -0.00192 for the second.

Compared with RRIRGRPPRLPRPRPRPCGGPRP, RRIRARPPRLPRPRPRPFCLPRP is lower in “shrunken log2 fold change” value: 0.472 for the first, 0.0753 for the second.

RRIRKRPPRLPRPRPRPLYKPRP and RRIRERPPRLPRPRPRPLQRPRP are within 0.2 log units of each other in “shrunken log2 fold change” value: -0.112 for the first, -0.131 for the second.

RRIRLRPPRLPRPRPRPRSEPRP and RRIRNRPPRLPRPRPRPPNEPRP are within 0.2 log units of each other in “shrunken log2 fold change” value: 0.235 for the first, 0.217 for the second.

RRIRLRPPRLPRPRPRPMYCPRP and RRIRMRPPRLPRPRPRPDVCPRP are within 0.2 log units of each other in “shrunken log2 fold change” value: -0.0105 for the first, 0.0762 for the second.

Compared with RRIRMRPPRLPRPRPRPAMPPRP, RRIRWRPPRLPRPRPRPKDIPRP is lower in “shrunken log2 fold change” value: 0.548 for the first, -0.0886 for the second.

Compared with RRIRNRPPRLPRPRPRPDPMPRP, RRIRLRPPRLPRPRPRPCGEPRP is higher in “shrunken log2 fold change” value: -0.177 for the first, 0.122 for the second.

First: RRIRVRPPRLPRPRPRPFWYPRP
Second: RRIRCRPPRLPRPRPRPSSNPRP
The “shrunken log2 fold change” value of the first is higher: -0.308 for the first, -0.715 for the second.

RRIRYRPPRLPRPRPRPVTEPRP and RRIRCRPPRLPRPRPRPCTLPRP are within 0.2 log units of each other in “shrunken log2 fold change” value: -0.134 for the first, -0.107 for the second.

RRIRNRPPRLPRPRPRPKHKPRP and RRIRQRPPRLPRPRPRPFSQPRP are within 0.2 log units of each other in “shrunken log2 fold change” value: -0.0428 for the first, 0.0178 for the second.

RRIRLRPPRLPRPRPRPLNRPRP and RRIRGRPPRLPRPRPRPNIRPRP are within 0.2 log units of each other in “shrunken log2 fold change” value: -0.317 for the first, -0.135 for the second.

RRIRYRPPRLPRPRPRPFHAPRP and RRIRERPPRLPRPRPRPTVFPRP are within 0.2 log units of each other in “shrunken log2 fold change” value: 0.207 for the first, 0.0505 for the second.

RRIRSRPPRLPRPRPRPSEAPRP and RRIRPRPPRLPRPRPRPCPKPRP are within 0.2 log units of each other in “shrunken log2 fold change” value: 0.121 for the first, -0.0283 for the second.

First: RRIRTRPPRLPRPRPRPDYHPRP
Second: RRIRRRPPRLPRPRPRPENKPRP
The “shrunken log2 fold change” value of the first is lower: -0.699 for the first, -0.0891 for the second.

RRIRMRPPRLPRPRPRPYQQPRP and RRIRCRPPRLPRPRPRPEFWPRP are within 0.2 log units of each other in “shrunken log2 fold change” value: -0.00196 for the first, 0.163 for the second.

Compared with RRIRTRPPRLPRPRPRPIVRPRP, RRIRMRPPRLPRPRPRPESPPRP is higher in “shrunken log2 fold change” value: -0.00141 for the first, 2.01 for the second.

RRIRSRPPRLPRPRPRPHHRPRP and RRIRIRPPRLPRPRPRPPNDPRP are within 0.2 log units of each other in “shrunken log2 fold change” value: -0.43 for the first, -0.55 for the second.

First: RRIRSRPPRLPRPRPRPDWAPRP
Second: RRIRERPPRLPRPRPRPDVGPRP
The “shrunken log2 fold change” value of the first is higher: 0.236 for the first, -0.59 for the second.

RRIRNRPPRLPRPRPRPVQYPRP and RRIRLRPPRLPRPRPRPIWLPRP are within 0.2 log units of each other in “shrunken log2 fold change” value: -0.000777 for the first, 0.132 for the second.

RRIRDRPPRLPRPRPRPKPHPRP and RRIRTRPPRLPRPRPRPTQWPRP are within 0.2 log units of each other in “shrunken log2 fold change” value: 0.305 for the first, 0.364 for the second.

RRIRKRPPRLPRPRPRPYWTPRP and RRIRQRPPRLPRPRPRPDKGPRP are within 0.2 log units of each other in “shrunken log2 fold change” value: -0.26 for the first, -0.285 for the second.

RRIRHRPPRLPRPRPRPMRYPRP and RRIRCRPPRLPRPRPRPCRDPRP are within 0.2 log units of each other in “shrunken log2 fold change” value: -0.0889 for the first, -0.142 for the second.

First: RRIRFRPPRLPRPRPRPWVIPRP
Second: RRIRWRPPRLPRPRPRPYYNPRP
The “shrunken log2 fold change” value of the first is higher: -0.412 for the first, -1.01 for the second.

Compared with RRIRLRPPRLPRPRPRPPSTPRP, RRIRDRPPRLPRPRPRPPFAPRP is higher in “shrunken log2 fold change” value: 0.00129 for the first, 0.427 for the second.

Going from RRIRHRPPRLPRPRPRPPTVPRP to RRIRRRPPRLPRPRPRPWHRPRP, the “shrunken log2 fold change” value falls from 0.184 to -0.113.

RRIRMRPPRLPRPRPRPIKGPRP and RRIRLRPPRLPRPRPRPWMDPRP are within 0.2 log units of each other in “shrunken log2 fold change” value: -0.0612 for the first, 0.0138 for the second.

Compared with RRIRWRPPRLPRPRPRPDGMPRP, RRIRFRPPRLPRPRPRPTRDPRP is higher in “shrunken log2 fold change” value: 0.0134 for the first, 0.613 for the second.

RRIRSRPPRLPRPRPRPSEYPRP and RRIRFRPPRLPRPRPRPCWIPRP are within 0.2 log units of each other in “shrunken log2 fold change” value: -0.306 for the first, -0.354 for the second.

Compared with RRIRNRPPRLPRPRPRPKPHPRP, RRIRTRPPRLPRPRPRPWCWPRP is lower in “shrunken log2 fold change” value: 0.174 for the first, -0.0632 for the second.

RRIRTRPPRLPRPRPRPLWEPRP and RRIRSRPPRLPRPRPRPGFPPRP are within 0.2 log units of each other in “shrunken log2 fold change” value: -0.0281 for the first, -0.00277 for the second.

Compared with RRIRDRPPRLPRPRPRPLSQPRP, RRIRQRPPRLPRPRPRPASNPRP is lower in “shrunken log2 fold change” value: 0.483 for the first, -0.00674 for the second.

In the case of RRIRIRPPRLPRPRPRPVHVPRP, the “shrunken log2 fold change” value is reported as -0.168.
